{
  "source": "patent CN111690059A",
  "about": "(WUHAN INST OF BIOLOGICAL PRODUCTS CO LTD, dated 2020)",
  "binders": {"B1": {"name": "抗SARS-CoV-2的单克隆抗体1D7 (antibody, V domains shown)", "VH": "EVQLVESGGGWIQPGGSLRLSCAASGLTVSSNYMSWVRQAPGKGLEWVSVIYSGGSTYYADSVKGRFTISRDNSKNTLYLQMNSLRAEDTAVYYCARDLVVYGMDVWGQGTTVTVSS", "VL": "AIRMTQSPSSLSASVGDRVTITCRASQSISSYLNWYQQKPGKAPKLLIYAASSLQSGVPSRFSGSGSGTDFTLTISSLQPEDFATYYCQQSYSTLGMYTFGQGTKLEIK", "notes": "also called 1D7抗体; 人源抗SARS-CoV-2抗体1D7"}},
  "key": {"[1]": {"biological_target": "T1, SARS-CoV-2刺突蛋白S1的RBD结构域重组蛋白(Sino公司，货号40592-V05H) (SARS-CoV-2, UniProt P0DTC2 319-541)", "T1 construct": "domain: RBD结构域; also called RBD结构域的重组蛋白", "experiment": "blocking ELISA, coated RBD, competitor His-tagged ACE2"}, "[2]": {"biological_target": "T1, SARS-CoV-2刺突蛋白S1的RBD结构域重组蛋白(Sino公司，货号405 …)", "experiment": "ELISA, coated RBD 1.0 μg/mL, goat anti-human IgG-HRP detection"}, "[3]": {"biological_target": "T2, SARS-CoV-2刺突S1-His重组蛋白(Sino公司，货号:40591-V08H) (SARS-CoV-2, UniProt P0DTC2 16-685)", "T2 construct": "domain: S1; also called S1蛋白; SARS-CoV-2刺突蛋白S1", "experiment": "ELISA, coated S1-His 1.0 μg/mL, goat anti-human IgG-HRP detection"}, "[4]": {"biological_target": "T3, SARS-CoV-2刺突S1亚基蛋白(Sino公司，货号:40591-V02H) (SARS-CoV-2, UniProt P0DTC2 16-685)", "T3 construct": "domain: S1; also called SARS-CoV-2(2019-nCoV)病毒的刺突蛋白S1", "experiment": "blocking ELISA, coated S1 subunit protein, competitor His-tagged ACE2"}},
  "data": [
    {"binder": "B1", "values": [
      {"measurement": "IC50", "setting": "[1]", "value": 4.1, "unit": "nM"},
      {"measurement": "EC50", "setting": "[2]", "value": 0.055, "unit": "nM"},
      {"measurement": "EC50", "setting": "[3]", "value": 0.092, "unit": "nM"},
      {"measurement": "IC50", "setting": "[4]", "value": 7.8, "unit": "nM"}
    ]}
  ]
}
